Measurements from article PMC10251306.

Substrate: O=P(O)(O)OC[C@H]1O[C@H](OP(=O)(O)O)[C@H](O)[C@@H](O)[C@@H]1O
Assay: phosphatase activity, BioMol Green phosphate assay
Format: biochemical, Homo sapiens
Details: without IMP, 100 mM Hepes pH 7.2, 2 mM MgCl2, 2 mM β-mercaptoethanol

B1: PMM1 (α-PMM1) (Homo sapiens) (protein)
chain: MAVTAQAARRKERVLCLFDVDGTLTPARQKIDPEVAAFLQKLRSRVQIGVVGGSDYCKIAEQLGDGDEVIEKFDYVFAENGTVQYKHGRLLSKQTIQNHLGEELLQDLINFCLSYMALLRLPKKRGTFIEFRNGMLNISPIGRSCTLEERIEFSELDKKEKIREKFVEALKTEFAGKGLRFSRGGMISFDVFPEGWDKRYCLDSLDQDSFDTIHFFGNETSPGGNDFEIFADPRTVGHSVVSPQDTVQRCREIFFPETAHEA
  Km: 18 ± 3.4 µM
  kcat: 0.018 ± 0.0012 s⁻¹
  kcat/Km: 1000 M⁻¹ s⁻¹
